Measured values reported in PMC6614809, “The ATP-dependent chromatin remodelling enzyme Uls1 prevents Topoisomerase II poisoning” (Nucleic Acids Research, 2019).

Target: T1, Full length Top2 (HFP185), purified (budding yeast (S. cerevisiae), UniProt P06786 1-1428)
T1 construct: Topoisomerase II (Top2), yeast, full length; Called a homodimer in the methods; also called Topoisomerase II; yeast Top2
T1 sequence (looked up): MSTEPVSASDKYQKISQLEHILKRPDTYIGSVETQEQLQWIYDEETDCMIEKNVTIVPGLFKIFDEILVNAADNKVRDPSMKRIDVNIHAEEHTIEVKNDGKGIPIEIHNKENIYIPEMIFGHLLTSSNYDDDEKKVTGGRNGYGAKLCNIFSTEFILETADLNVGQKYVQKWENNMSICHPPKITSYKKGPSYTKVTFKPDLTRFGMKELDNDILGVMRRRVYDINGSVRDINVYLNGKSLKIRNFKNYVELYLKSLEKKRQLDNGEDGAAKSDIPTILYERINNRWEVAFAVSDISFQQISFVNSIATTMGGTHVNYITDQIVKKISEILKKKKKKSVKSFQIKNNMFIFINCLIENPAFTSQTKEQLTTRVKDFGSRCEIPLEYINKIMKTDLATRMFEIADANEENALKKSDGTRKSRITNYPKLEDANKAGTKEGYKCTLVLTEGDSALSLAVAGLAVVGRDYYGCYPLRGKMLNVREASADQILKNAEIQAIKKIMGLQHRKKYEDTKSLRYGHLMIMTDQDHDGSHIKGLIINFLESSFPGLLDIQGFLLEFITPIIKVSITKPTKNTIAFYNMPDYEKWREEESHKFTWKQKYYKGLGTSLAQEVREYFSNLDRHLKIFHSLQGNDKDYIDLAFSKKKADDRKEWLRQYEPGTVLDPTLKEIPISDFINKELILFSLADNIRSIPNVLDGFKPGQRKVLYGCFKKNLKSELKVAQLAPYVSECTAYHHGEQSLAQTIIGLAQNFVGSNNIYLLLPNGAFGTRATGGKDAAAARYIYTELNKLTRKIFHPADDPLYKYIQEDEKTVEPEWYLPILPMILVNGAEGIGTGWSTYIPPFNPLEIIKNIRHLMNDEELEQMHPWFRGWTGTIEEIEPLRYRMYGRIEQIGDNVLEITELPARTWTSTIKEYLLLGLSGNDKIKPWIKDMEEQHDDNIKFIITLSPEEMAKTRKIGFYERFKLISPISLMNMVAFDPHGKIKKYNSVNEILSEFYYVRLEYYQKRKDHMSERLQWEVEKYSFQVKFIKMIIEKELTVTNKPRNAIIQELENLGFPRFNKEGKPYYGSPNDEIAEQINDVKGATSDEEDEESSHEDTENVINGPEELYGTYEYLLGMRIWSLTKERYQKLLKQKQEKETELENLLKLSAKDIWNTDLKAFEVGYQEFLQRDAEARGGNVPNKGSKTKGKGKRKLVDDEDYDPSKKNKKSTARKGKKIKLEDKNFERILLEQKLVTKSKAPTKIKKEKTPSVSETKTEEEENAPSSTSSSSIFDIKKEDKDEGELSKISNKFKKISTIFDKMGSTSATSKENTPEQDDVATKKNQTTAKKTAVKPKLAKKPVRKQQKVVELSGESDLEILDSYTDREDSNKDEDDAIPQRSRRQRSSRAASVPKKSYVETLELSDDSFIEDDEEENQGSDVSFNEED
Test: pull-down; about 0.1 mg Uls1 fragment (bait) pre-bound to Strep-Tactin superflow beads; 200 ul Top2 (prey, 0.1 mg/ml) added, 1 h at 4 C; Pulldown buffer 25 mM HEPES pH 7.5, 150 mM KCl, 3 mM MgCl2, 5% glycerol, 1 mM DTT, 0.1% NP-40; three washes
Settings: both partners purified

B1: Uls1 fragment 350-655, purified bait (domain or fragment, budding yeast (S. cerevisiae), UniProt Q08562 350-655, looked up)
chain: PSKNMDHTTHNSHDSEQKNSSIIILSDEDESGAGINDIESPLKVSEPNTADALRSSVPEVISLLDLPNIDLNNSVIKEASGSNSIPTSETDAQSSSSSVLQGTIMTEQATQSSQHECNSSLDTLKKNHQKLLKDLNSRESELRNALSCCKTNSEILRRKLSRREKEVSDAEKHWQLLLTSMARGGRTISSTQQILVDEAENQLNKLKEKRQLTKSKLDSINLKMYNYNEQWKSFVHSKNINLQKSLAALERSARDSKASATVNKRNECLAEKEKLDQMLKEGTLSFSTYKQLTGEIQQKLNDLKLG
notes: Tags are inferred from the resins used; also called bait protein; source: E. coli BL21(DE3)RIL, purified (TALON resin)
  binding result: binds
